These results are taken from paper PMC6212840.

Where two headings read alike, the source gives them in different places.

Assay [1] deals with TbMP18-FL (aa 19-164) (Trypanosoma brucei). Briefly: SEC.
Assay [2] has the same target.

Broadly, the stoichiometry N is the number of molecules, sites or subunits per partner or assembly. The molecule TbMP18-FL (aa 19-164) (natural protein) displayed a stoichiometry N in assay [1] of 4.

TbMP24-FL (aa 47-246) (natural protein): the stoichiometry N in assay [2] was 1.1; in assay [1], 1.5.

B1: TbMP63-OB (aa 472-587) (domain or fragment)
chain: SAIGASWAETELIPHAQCVSNITIVGRVLDVSQASENVSHVTVFVEGERSGEEETLTLCCFGEVSQKIRGTLKRNATIFASGTLRLHPVYEASNNKYYVSPVVHVSMPTGTLAVIT
As for B1, the stoichiometry N in assay [2] came out at 0.67.
